To fix the notation:
B1: Ep114 peptide (peptide)
peptide: KHLQCVRNICWS
modifications: disulfide 5-10; also: FITC-modified, position not given here
notes: Synthetic peptide, FITC-modified in fluorescence depolarization and cell staining
B2: Ep133 peptide (peptide)
peptide: EHLHCLGSLCWP
modifications: disulfide 5-10; also: FITC-modified, position not given here
notes: as for B1
B3: Ep114(K1F) variant phage (peptide)
chain: FHLQCVRNICWS
modifications: not fully specified (bridges); cysteine pairing not given here; also: displayed on phage
notes: also called variant in which lysine was substituted by phenylalanine (F); not shown: not described
B4: Ep114(K1Y) variant phage (peptide)
chain: YHLQCVRNICWS
modifications: not fully specified (bridges); cysteine pairing not given here; also: displayed on phage
notes: also called variant in which lysine was substituted by tyrosine (Y); not shown: not described
B5: Ep114(K1M) variant phage (peptide)
chain: MHLQCVRNICWS
modifications: not fully specified (bridges); cysteine pairing not given here; also: displayed on phage
notes: also called variant in which lysine was substituted by methionine (M); not shown: not described
B6: Ep114(K1W) variant phage (peptide)
chain: WHLQCVRNICWS
modifications: not fully specified (bridges); cysteine pairing not given here; also: displayed on phage
notes: also called variant in which lysine was substituted by tryptophan (W); not shown: not described
B7: Ep114-displaying phage (peptide)
chain: KHLQCVRNICWS
modifications: cysteine pairing not given here; also: displayed on phage
notes: not shown: fusion and linker not described
B8: Ep114(K1N) variant phage (peptide)
chain: NHLQCVRNICWS
modifications: not fully specified (bridges); cysteine pairing not given here; also: displayed on phage
notes: also called variant in which lysine at the 1st residue was substituted by asparagine (N); not shown: not described
B9: Ep114(K1S) variant phage (peptide)
chain: SHLQCVRNICWS
modifications: not fully specified (bridges); cysteine pairing not given here; also: displayed on phage
notes: also called variant in which lysine at the 1st residue was substituted by serine (S); not shown: not described
B10: Ep114(L3A) variant phage (peptide)
chain: KHAQCVRNICWS
modifications: not fully specified (bridges); cysteine pairing not given here; also: displayed on phage
notes: not shown: not described
B11: Ep114(K1I) variant phage (peptide)
chain: IHLQCVRNICWS
modifications: not fully specified (bridges); cysteine pairing not given here; also: displayed on phage
notes: also called variant in which lysine at the 1st residue was substituted by isoleucine (I); not shown: not described
B12: Ep114(K1A) variant phage (peptide)
chain: AHLQCVRNICWS
modifications: not fully specified (bridges); cysteine pairing not given here; also: displayed on phage
notes: also called variant in which lysine at the 1st residue was substituted by alanine (A); not shown: not described
B13: PE185 peptide (peptide)
peptide: Ac-KHLQCVRNICWSNNNNSNNNNK(Biotin)-NH2
modifications: not fully specified (bridges); printed as Ac-KHLQCVRNICWSNNNNSNNNNK(biotin)-NH2; cysteine pairing not given here
B14: PE184 peptide (peptide)
peptide: Ac-KHLQCVRNICWSGGSGGSK(Biotin)-NH2
modifications: not fully specified (bridges); printed as Ac-KHLQCVRNICWSGGSGGSK(biotin)-NH2; cysteine pairing not given here
notes: Ep114 with the linker GGSGGSK, biotin-modified
B15: EpCAM partial sequence (sequence of EpCAM from residue 106 to 119) (peptide)
peptide: KAKQCNGTSMCWPK
modifications: cysteine pairing not given here; also: FITC-modified, position not given here
B16: Ep301 control (peptide)
peptide: KSLQSINNLSWP
modifications: also: FITC-modified, position not given here
notes: Ep301 with cysteine at positions 5 and 10 substituted by serine
B17: Ep301 peptide (peptide)
peptide: KSLQCINNLCWP
modifications: disulfide 5-10; also: FITC-modified, position not given here

The record followed here is patent US20150246945A1 (JAPANESE FOUNDATION FOR CANCER RESEARCH, published 2015).

As usually defined, the Kd is a measure of binding affinity in units of concentration. Low values mean tighter binding, high ones weaker binding.

Bridge positions count the residues as written; N and C are the ends. Ends that are not written are not given here. * marks the point of attachment. Biotin = O=C1N[C@H]2[C@H](CS[C@H]2CCCCC(=O)*)N1

The first assay addresses T1, purified EpCAM (extracellular domain with myc and His tags at the C terminus, expressed in HEK-293T cells) (UniProt P16422 24-265, limits assumed).
T1 construct: extracellular domain; also called epithelial cell adhesion molecule; CD326
T1 sequence (looked up): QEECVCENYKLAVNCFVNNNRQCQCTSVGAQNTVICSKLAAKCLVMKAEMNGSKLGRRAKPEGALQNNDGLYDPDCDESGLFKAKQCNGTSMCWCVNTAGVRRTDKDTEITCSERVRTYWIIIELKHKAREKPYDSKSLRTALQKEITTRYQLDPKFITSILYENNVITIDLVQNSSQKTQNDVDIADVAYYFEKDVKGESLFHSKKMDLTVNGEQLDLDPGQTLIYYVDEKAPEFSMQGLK
Description: fluorescence depolarization. The method, then:
(§1) Each FITC-modified EpCAM peptide or control peptide was suspended at a concentration of approximately 100 μM in PBS. After centrifugation, the supernatant was collected and diluted 10-fold, and the absorbance was measured at 495 nm From the measurement value, the molar concentration of the peptide was determined using the formula of Beer-Lambert of the following expression 1: […]
(§2) EpCAM is diluted with PBS into several concentrations from 0 until reaching equilibrium (40 nM for the Ep133 peptide), and the FITC-modified peptide whose precise concentration has been measured by the aforementioned method is added to the dilutions thus prepared. The sample was left at a temperature for measurement for 30 minutes or longer and subjected to polarization measurement using a spectrofluorometer FP-6500 (JASCO Corp.) equipped with an automatic polarization measurement unit (JASCO Corp., APH-103). Kd was estimated by curve fitting according to the Hill equation.
Regarding B1, the “fold strength of binding compared with Ep301” value was no less than 10 times.
Turning to B2, the “fold strength of binding compared with Ep301” value is no less than 10 times.

The next assay concerns the target T1, purified EpCAM (extracellular domain …). Put plainly: phage ELISA on immobilized EpCAM. The method, then: The phages displaying the peptides in which each amino acid of Ep114 was substituted by alanine are added to the EpCAM- or anti-Ep114 antibody-immobilized plate, and the plate is left still at room temperature for 1 hour. After washing with TBST, HRP-labeled anti-M13 antibodies were reacted therewith, followed by detection using ABTS (2,2′-azinobis(3-ethylbenzothiazoline-6-sulfonic acid). The binding activity against EpCAM is shown in FIG. 3A, and the binding activity against the anti-Ep114 antibody is shown in FIG. 3B. M13KE is a phage displaying no peptide and is a negative control.
As with the alanine substitution variants, variant phages were prepared by the introducing specific mutations to lysine at the 1st residue based on inverse PCR method and analyzed for binding activity against EpCAM. The analysis method involved evaluation by ELISA in the same way as in the functional analysis of the Ep114 peptide by the alanine scanning. In the figure, EpCAM+ and EpCAM− represent the presence and absence of EpCAM immobilization onto a plate, respectively. Corrected value represents a value subtracting the measurement of EpCAM− from the measurement of EpCAM+.
For B3, the binding result was “binds”.
The same measure, in the same setting: next, B4: “binds”; B5: “binds”; B6: “binds”.

The next assay has the same target. Put plainly: phage bound to EpCAM, captured on beads, phages counted. On the procedure: The analysis was conducted using the variants in which lysine at the 1st residue was substituted by alanine (A), asparagine (N), serine (S), or isoleucine (I), and M13KE, Ep114, and the variant in which leucine at the 3rd residue was substituted by alanine as controls. Each phage of 1×10¹⁰ PFU was bound to 1 μg of EpCAM, and then mixed with 0.4 mg of beads pretreated overnight with 0.5% BSA and B&W buffer (5 mM Tris-HCl (pH 7.5), 0.5 mM EDTA, and 1 M NaCl). The number of phages bound to the beads was counted.
Consider B7, for which the binding result is listed as “binds”.
On to B8, for which the binding result is reported as “binds”.
Take B9: the binding result is recorded as “binds”.
As to B10, the binding result is given as “binds”.
Consider B11, for which the binding result is recorded as “binds”.
Take B12: the binding result was “binds”.

The next assay deals with T2, EpCAM, whole protein on cells (HT-29, MCF-7, 293T transfected with full-length EpCAM plasmid pkk196) or on … (UniProt P16422 24-314, limits assumed).
T2 construct: whole, on cells; Used for both cell-surface EpCAM and EpCAM carried on HT-29 exosomes; the assay field says which; also called EpCAM on HT-29; EpCAM-expressing cells
T2 sequence (looked up): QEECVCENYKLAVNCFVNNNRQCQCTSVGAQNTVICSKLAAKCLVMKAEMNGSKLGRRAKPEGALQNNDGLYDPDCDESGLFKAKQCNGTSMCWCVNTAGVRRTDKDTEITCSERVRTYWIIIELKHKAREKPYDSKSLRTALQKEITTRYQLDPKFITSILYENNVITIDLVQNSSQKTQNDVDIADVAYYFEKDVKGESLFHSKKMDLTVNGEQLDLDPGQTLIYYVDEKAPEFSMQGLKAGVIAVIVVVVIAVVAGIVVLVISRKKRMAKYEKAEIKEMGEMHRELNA
Description: pull-down of HT-29 exosomes on peptide-loaded streptavidin beads, Western blot with anti-EpCAM. The method, then:
250 μg of streptavidin-magnetic beads (Dynabeads® M-280 streptavidin, VERITAS Corp.) in TBS containing 2% BSA was added to 20 μg of the biotinylated Ep114 peptide and shaken at room temperature for 30 minutes, followed by washing with TBS. Beads reacted without the peptide were used as a control. The anti-Ep114 antibody was added to the beads in TBST and reacted at room temperature for 1 hour. After washing with TBS, the beads were collected. The collected beads were heated at 95° C. for 5 minutes in a SDS sample buffer. After Western-blotting, the anti-Ep114 antibody was detected using HRP-labeled anti-rabbit antibodies.
The binding to exosomes was confirmed using the Western blot system in the similar method as in the preceding paragraph 1. Specifically, 20 μg of the biotinylated Ep114 peptide, the PE183 peptide, the PE184 peptide, or the PE185 peptide was bound to 250 μg of streptavidin-magnetic beads and then reacted with exosomes isolated from HT-29 cells as EpCAM-positive cells, followed by Western blot to detect the exosomes using anti-EpCAM polyclonal antibodies (see the left panel of FIG. 5C).
(In general: Immunoblotting shows a protein as a band on a membrane.)
Turning to B13, the binding result was “binds”.
With B14, the binding result was “binds”.

The next assay deals with T1, purified EpCAM (extracellular domain …). Put plainly: fluorescence depolarization, FITC-modified peptide. The method, then: as §1, §2
The dissociation constants of the EpCAM-binding peptide Ep301 (FIG. 2(D)) disclosed in Patent Literature 2 and Ep301 control (FIG. 2(E)), which was a control peptide derived from Ep301 by the substitution of cysteine at positions 5 and 10 by serine, and a sequence of EpCAM from residue 106 to 119 (FIG. 2(F)) having partial homology to EpCAM-binding peptides were measured similarly.
For B15, the binding result is given as “no binding”.
The same measure, in the same setting: next, B16: “no binding”.

Another assay shares this target. Description: fluorescence depolarization, FITC-modified peptide, Hill fit. On the procedure:
as §1, §2
B1: the affinity, expressed as Kd, was 1.6 nM.
Same read-out and setting: next, B17: 20 nM; B2: 1.5 nM.
